Legend:
[1] = target: T1, human recombinant IL-15 (SinoBiological ref#10360-H07E) (human, UniProt P40933 49-162); test: ELISA, human IL-15 immobilized, anti-human IgG peroxidase detection
T1 construct: also called Human IL-15; IL-15 cytokine

[2] = target: T2, recombinant human PD-1 (Sino Biologicals, reference 10377-H08H) (human, UniProt Q15116 25-167); test: ELISA, recombinant hPD1 immobilized, anti-human IgG peroxidase detection
T2 construct: Bought protein; also called recombinant hPDl; Human recombinant PD-1
T2 sequence (Q15116 25-167 limits assumed): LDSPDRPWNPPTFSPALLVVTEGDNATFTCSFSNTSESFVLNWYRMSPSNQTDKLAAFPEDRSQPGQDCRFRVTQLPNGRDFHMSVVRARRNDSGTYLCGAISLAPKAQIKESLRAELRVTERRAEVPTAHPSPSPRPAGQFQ

T1 sequence (P40933 49-162 limits assumed, stated change not applied): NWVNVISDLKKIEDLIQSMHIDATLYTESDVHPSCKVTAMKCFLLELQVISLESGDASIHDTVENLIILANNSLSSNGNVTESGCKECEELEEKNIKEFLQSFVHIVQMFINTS

B1: anti-PD-1 antibody (antibody, human IgG4 S228P, kappa, V domains shown)
VH: QIQLVQSGSELKKPGASVKVSCKASGYTFTHYAMNWVRQAPGQGLEWMGWINTNTGEPTYAQGFTGRFVFSLDTSVSTAYLQISSLKAEDTAVYYCAREREPGMDNWGQGTLVTVSS
VL: DVVMTQSPLSLPVTLGQPASISCRSSQSLVHANTNTYLEWYQQRPGQSPRLLIYKVSNRFSGVPDRFSGSGSGTDFTLKISRVEAEDVGVYYCFQGTHVPNTFGQGTKLEIKR
notes: also called Anti-PDl; anti-PD-1 alone
binding result [1]: no binding
binding result [2]: binds

— patent publication WO2020165374A1 (dated 2020)
